Laboratory results as given in patent US20150125463A1 (Bristol-Myers Squibb, published 2015).
One block for each binder: values may come before it.

Assays:
[1] = target: T1, human PD-L1 (on cells or in tissue) (human, UniProt Q9NZQ7 19-290); experiment: competition flow cytometry on ES-2 cells: unlabeled Ab titrated, then biotin-12A4 at 0.4 ug/mL, streptavidin-PE
T1 construct: whole, on cells; also called hPD-L1; Programmed Death Ligand-1

[2] = target: T1, human PD-L1 (on cells or in tissue); experiment: flow cytometry on CHO/PD-L1 cells pre-incubated with 10 ug/mL hIgG1, FITC-10H10 at 0.27 ug/mL
Description: (§1) Different quantities of the various FITC-conjugated HuMAbs were used due to differences in binding efficiency following labeling, and the optimal amounts of these FITC-conjugated HuMAbs were previously determined by dose-titration analysis of binding to CHO/PD-L1 cells.

human PD-1 [3] = target: T2, human PD-1 (human, UniProt Q15116 25-288); experiment: flow cytometry on CHO/PD-1 cells pre-incubated with 10 ug/mL hIgG1 control, 2D3 at 0.2 ug/mL, detection with FITC goat anti-hIgG Fc
T2 construct: whole, on cells; also called hPD-1; Programmed Death-1

human PD-1 [4] = target: T2, human PD-1; experiment: flow cytometry on CHO/PD-1 cells pre-incubated with 10 ug/mL hIgG1 control, 4H1 at 0.2 ug/mL, detection with FITC goat anti-hIgG Fc
human PD-1 [5] = target: T2, human PD-1; experiment: flow cytometry on CHO/PD-1 cells pre-incubated with hIgG control, FITC-labeled 17D8
human PD-1 [6] = target: T2, human PD-1; experiment: flow cytometry on CHO/PD-1 cells pre-incubated with 10 ug/mL hIgG1 control, 7D3 at 0.2 ug/mL, detection with FITC goat anti-hIgG Fc
[7] = target: T1, human PD-L1 (on cells or in tissue); experiment: flow cytometry competition on CHO/PD-L1 cells; unlabeled mAb at 10 ug/ml
Description: as §1

B1: anti-PD-L1 HuMAb 10A5 (antibody, V domains shown)
VH: QVQLVQSGAEVKKPGASVKVSCKASGYTFTSYDVHWVRQAPGQRLEWMGWLHADTGITKFSQKFQGRVTITRDTSASTAYMELSSLRSEDTAVYYCARERIQLWFDYWGQGTLVTVSS
VL: DIQMTQSPSSLSASVGDRVTITCRASQGISSWLAWYQQKPEKAPKSLIYAASSLQSGVPSRFSGSGSGTDFTLTISSLQPEDFATYYCQQYNSYPYTFGQGTKLEIK
notes: Human mAb; Used unconjugated and FITC-conjugated
binding result [1]: binds

B3: anti-PD-1 HuMAb 2D3 (antibody, V domains shown)
VH: QVQLVESGGDVVQPGRSLRLSCAASGLTFTNYGFHWVRQAPGKGLEWVAVIWYDGSKKYYADSVKGRFTISRDNSKNTLYLQMNNLRAEDTAVYYCATGDDYWGQGTLVTVSS
VL: EIVLTQSPATLSLSPGERATLSCRASQSVSSYLAWYQQKPGQAPRLLIYDTSNRATGIPARFSGSGSGTDFTLTISSLEPEDFAVYYCQQRSNWPLTFGGGTKVEIK
notes: Human mAb
binding result (human PD-1 [3]): binds

B5: anti-PD-L1 HuMAb 3G10 (antibody, V domains shown)
VH: QVQLVQSGAEVKKPGASVKVSCKASGYTFTDYGFSWVRQAPGQGLEWMGWITAYNGNTNYAQKLQGRVTMTTDTSTSTVYMELRSLRSDDTAVYYCARDYFYGMDVWGQGTTVTVSS
VL: EIVLTQSPATLSLSPGERATLSCRASQSVSSYLVWYQQKPGQAPRLLIYDASNRATGIPARFSGSGSGTDFTLTISSLEPEDFAVYYCQQRSNWPRTFGQGTKVEIK
notes: as for B1
IC50 (read off the curve) [1]: ~0.9 nM

B8: anti-PD-L1 HuMAb 1B12 (antibody, V domains shown)
VH: QVQLVQSGAEVKKPGSSVKVSCKTSGDTFSSYAISWVRQAPGQGLEWMGGIIPIFGRAHYAQKFQGRVTITADESTSTAYMELSSLRSEDTAVYFCARKFHFVSGSPFGMDVWGQGTTVTVSS
VL: not shown
notes: Human mAb
IC50 (read off the curve) [1]: ~0.2 nM

Now from value to binder:

binding result [2]: binds
B2: anti-PD-L1 HuMAb 10H10 (antibody, V domains shown)
VH: EVQLVESGGGLVQPGRSLRLSCAVSGFTFDDYVVHWVRQAPGKGLEWVSGISGNSGNIGYADSVKGRFTISRDNAKNSLYLQMNSLRAEDTALYYCAVPFDYWGQGTLVTVSS
VL: DIQMTQSPSSLSASVGDRVTITCRASQGISSWLAWYQQKPEKAPKSLIYAASSLQSGVPSRFSGSGSGTDFTLTISSLQPEDFATYYCQQYNSYPYTFGQGTKLEIK
notes: as for B1

binding result (human PD-1 [4]): binds
B4: anti-PD-1 HuMAb 4H1 (antibody, V domains shown)
VH: QVYLVESGGGVVQPGRSLRLSCAASGFTFSNYGMHWVRQAPGKGLEWVALIWYDGSNKYYADSVKGRFTISRDNSKNTLYLQMTSLRVEDTAVYYCASNVDHWGQGTLVTVSS
VL: EIVLTQSPATLSLSPGERATLSCRASQSVSSYLAWYQQKPGQAPRLLIYDASNRATGIPARFSGSGSGTDFTLTISSLEPEDFAVYYCQQSSNWPRTFGQGTKVEIK
notes: Human mAb

binding result (human PD-1 [5]): binds
B6: anti-PD-1 HuMAb 17D8 (antibody, V domains shown)
VH: QVQLVESGGDVVQPGGSLRLSCAASGVAFSNYGMHWVRQAPGKGLEWVAVIWYDGSNKYYADSVKGRFTISRDNSKNMLYLQMNSLRAEDTAMYYCARNDDYWGQGTLVTVSS
VL: EIVLTQSPATLSLSPGERATLSCRASQSVSSYLAWYQQKPGQAPRLIIYDASNRATGIPARFSGSGSGTDFTLTISSLEPEDFAVYYCQQRSNWPLTFGGGTKVEIK
notes: Human mAb; also called FITC-labeled 17D8

binding result (human PD-1 [6]): binds
B7: anti-PD-1 HuMAb 7D3 (antibody, V domains shown)
VH: QVQLVESGGGVVQPGRSLRLSCTTSGITFSSYGFHWVRQAPGKGLEWVAVIWYDGSKKYYADSVKGRFTLSRDDSKNTLYLQMNSLRAEDTAVYYCVTGDDYWGQGTLVTVSS
VL: EIVLTQSPATLSLSPGERATLSCRASQSVSSYLAWYQQKPGQAPRLLIYDASNRATGIPARFSGSGSGTDFTLTISSLEPEDFAVYYCQQRSNWPLTFGGGTKVEIK
notes: Human mAb

binding result [7]: binds
B9: anti-PD-L1 HuMAb 7H1 (antibody, V domains shown)
VH: QVQLVQSGAEVKKPGSSVKVSCKTSGGTFSSYAISWVRQAPGQGLEWMGGIIPIFGKAHYAQKFQGRVTITADESTTTAYMELSSLRSEDTAVYYCARKYDYVSGSPFGMDVWGQGTTVTVSS
VL: not shown
notes: Human mAb
